Molecular target: CD2 (human (endogenous in primary CD8+ T cells)) (UniProt P06729)
UniProt P06729, sequence (P06729 25-351): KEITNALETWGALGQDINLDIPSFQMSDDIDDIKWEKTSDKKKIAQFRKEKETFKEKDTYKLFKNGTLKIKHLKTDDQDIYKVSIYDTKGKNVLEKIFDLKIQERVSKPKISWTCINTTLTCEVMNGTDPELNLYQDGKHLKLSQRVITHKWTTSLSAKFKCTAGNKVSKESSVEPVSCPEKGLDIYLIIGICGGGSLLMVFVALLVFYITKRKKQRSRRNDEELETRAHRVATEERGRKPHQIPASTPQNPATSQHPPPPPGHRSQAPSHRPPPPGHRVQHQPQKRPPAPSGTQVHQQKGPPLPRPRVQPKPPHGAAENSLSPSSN

extracellular part of human CD58 (aa 29–213) (from UniProt P19256 29-213) (ligand)
efficacy (Emax) of cytokine production (TNF-α, IFN-γ, IL-2; ELISA) by c58c61-TCR CD8+ T cell blasts on plate-immobilised pMHC with a titration of coimmobilised CD58, 8 h: > 10 fold
potency (EC50 of pMHC) of cytokine production (TNF-α, IFN-γ, IL-2; ELISA) by c58c61-TCR CD8+ T cell blasts on plate-immobilised pMHC with a titration of coimmobilised CD58, 8 h: 50 fold
